In assay [1] the target is T1, Human CCR7 (human, UniProt P32248 25-378).
T1 sequence: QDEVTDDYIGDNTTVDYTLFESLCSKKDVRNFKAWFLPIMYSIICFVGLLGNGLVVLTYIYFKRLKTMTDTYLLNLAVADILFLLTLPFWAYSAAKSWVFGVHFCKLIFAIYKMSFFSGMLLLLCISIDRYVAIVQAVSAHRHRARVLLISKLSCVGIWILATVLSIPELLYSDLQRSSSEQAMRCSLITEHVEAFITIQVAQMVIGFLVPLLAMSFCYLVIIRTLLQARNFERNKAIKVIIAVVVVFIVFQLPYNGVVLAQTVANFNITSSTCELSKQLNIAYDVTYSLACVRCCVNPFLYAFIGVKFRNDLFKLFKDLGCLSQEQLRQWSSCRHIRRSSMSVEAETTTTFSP
As to the kind of experiment: cell-based or functional assay.

The target in assay [2] is T1, Human CCR7. The experiment in a line: FACS binding assay.
Assay [3] concerns the target T1, Human CCR7. As to the kind of experiment: cell-based or functional assay. The source holds these as a separate data set.

The record followed here is patent US20240092918A1 (Novartis, published 2024).

B1: 506E15 non-humanized CysMab (antibody, human IgG1, kappa, V domains shown)
VH: EVMLVESGGGLVKPGGSLKLSCAASGFTFSSYAMSWIRQTPEKRLEWVATISSGGSFTYYPDSVKGRFTISRDNVKNTLYLQMSSLRSEDTAMYYCARRASTVVGTDFDVWGAGTTVTVSS
VL: DIQMTQSPSSLSASLGERVSLTCRASQDIGSSLNWLQQEPDGTIKRLIYATSSLDSGVPKRFSGSRSGSDYSLTISSLESEDFVVYYCLQYASSPPTFGGGTKLEIKR
With B1, in the assay with Human CCR7 [1], the “ADCC activity; IC50 (nM); surrogate ADCC reporter assay, JVM2 target cells and Jurkat-V158 effector cells” value (“ADCC activity; IC50 (nM)” below) is 0.131 nM.

B2: 684E12 non-humanized CysMab (antibody, human IgG1, kappa, V domains shown)
VH: EVHLVESGGGLVKPGGSLKLSCAASGFTFSNFAMSWVRQTPEKRLEWVATISTGGTYTYYPDSVKGRFTISRDNAKKTLYLQMSSLRSEDTAMYYCTRRGYDGVDKWGQGTTLTVSS
VL: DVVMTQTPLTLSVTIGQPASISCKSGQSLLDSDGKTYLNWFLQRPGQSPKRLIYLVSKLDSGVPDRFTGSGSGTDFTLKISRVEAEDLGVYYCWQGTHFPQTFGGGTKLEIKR
Consider B2, for which the “ADCC activity; IC50 (nM)” value with Human CCR7 [1] came out at 2.63 nM.

B3: 684E12.SMCC.DM1 (antibody, V domains shown)
VH: EVHLVESGGGLVKPGGSLKLSCAASGFTFSNFAMSWVRQTPEKRLEWVATISTGGTYTYYPDSVKGRFTISRDNAKKTLYLQMSSLRSEDTAMYYCTRRGYDGVDKWGQGTTLTVSS
VL: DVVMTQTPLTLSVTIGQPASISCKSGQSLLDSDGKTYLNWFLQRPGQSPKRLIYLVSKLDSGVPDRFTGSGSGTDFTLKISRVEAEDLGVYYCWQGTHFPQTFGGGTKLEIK
modifications: SMCC-DM1 on lysines of the antibody, sites not defined; DAR 2.6
notes: also called parental 684E12.SMCC.DM1 (DAR2.6)
For the molecule B3, the “geometric mean fluorescence intensity, difference from the unconjugated antibody” value with Human CCR7 [2] was not above 20%.

B4: 121G12 non-humanized CysMab (antibody, human IgG1, kappa, V domains shown)
VH: EVQLVESGGGLVKPGGSLKLSCAASGFTFSTYAMSWVRQTPEKRLEWVATISDGGSYSYYPDNVKGRFTISRDNAKNNLYLQMSHLKSEDTAMYYCARRGSRYEEYYVMDYWGQGTSVTVSS
VL: DIVLTQSPATLSVTPGDSVSLSCRASQSISNNLHWYQQKSHESPKLLIKYASQSISGIPSRFSGSGSGTDFTLSINSVETEDFGMYFCQQSNSWLTFGAGTKLGLKR
Regarding B4, in the assay with Human CCR7 [1], the “ADCC activity; IC50 (nM)” value came to 0.077 nM.

B5: 121G12.CysMab.AURIX1 (antibody, human IgG1, kappa, V domains shown)
VH: EVQLVESGGGLVKPGGSLKLSCAASGFTFSTYAMSWVRQTPEKRLEWVATISDGGSYSYYPDNVKGRFTISRDNAKNNLYLQMSHLKSEDTAMYYCARRGSRYEEYYVMDYWGQGTSVTVSS
VL: DIVLTQSPATLSVTPGDSVSLSCRASQSISNNLHWYQQKSHESPKLLIKYASQSISGIPSRFSGSGSGTDFTLSINSVETEDFGMYFCQQSNSWLTFGAGTKLGLKR
modifications: AURIX1 on the engineered cysteines; DAR 3.80
notes: also called 121G12.AURIX1; 121G12 parental.Cys-Mab.wild type Fc.hIgG1.AURIX1
On to B5, for which the “geometric mean fluorescence intensity, difference from the unconjugated antibody” value with Human CCR7 [2] is not above 20%.

B6: 121G12.CysMab.DAPA.MPET.DM4 (antibody, human IgG1, kappa)
heavy: EVQLVESGGGLVKPGGSLRLSCAASGFTFSTYAMSWVRQAPGKGLEWVATISDAGSYSYYPDNVKGRFTISRDNAKNSLYLQMNSLRAEDTAVYYCARRGSRYEEYYVMDYWGQGTTVTVSSASTKGPSVFPLAPSSKSTSGGTAALGCLVKDYFPCPVTVSWNSGALTSGVHTFPAVLQSSGLYSLSSVVTVPSSSLGTQTYICNVNHKPSNTKVDKRVEPKSCDKTHTCPPCPAPELLGGPSVFLFPPKPKDTLMISRTPEVTCVVVAVSHEDPEVKFNWYVDGVEVHNAKTKPREEQYNSTYRVVSVLTVLHQDWLNGKEYKCKVSNKALAAPIEKTISKAKGQPREPQVYTLPPSREEMTKNQVSLTCLVKGFYPCDIAVEWESNGQPENNYKTTPPVLDSDGSFFLYSKLTVDKSRWQQGNVFSCSVMHEALHNHYTQKSLSLSPGK
light: EIVLTQSPATLSVSPGERVTLSCRASQSISNNLHWYQQKPGQAPRLLIKYASQSISGIPARFSGSGSGTDFTLTISSVEPEDFGVYFCQQSSSWLTFGQGTKLEIKRTVAAPSVFIFPPSDEQLKSGTASVVCLLNNFYPREAKVQWKVDNALQSGNSQESVTEQDSKDSTYSLSSTLTLSKADYEKHKVYACEVTHQGLSSPVTKSFNRGEC
modifications: MPET.DM4 linker-drug on the engineered cysteines (E152C, S375C, EU numbering); DAR 3.79
notes: also called 121G12.CysMab.DAPA.MPET.DM4 (DAR 3.8); MPET.DM4 ADC
Turning to B6, the “geometric mean fluorescence intensity, difference from the unconjugated antibody” value in the assay with Human CCR7 [2] is not above 20%. Besides, in the assay with Human CCR7 [3], the “In vitro cytotoxic activity, IC50 (nM); DEL cells (relative receptor density 67%)” value came out at 2.28 nM; the “In vitro cytotoxic activity, IC50 (nM); JVM2 cells (relative receptor density 79%)” value turned out to be 4.62 nM; the “In vitro cytotoxic activity, IC50 (nM); KE97 cells (relative receptor density 100%)” value was found to be 2.24 nM; the “In vitro cytotoxic activity, IC50 (nM); L540 cells (relative receptor density 175%)” value turned out to be 4.9 nM. Besides, in the assay with Human CCR7 [3], the “In vitro cytotoxic activity, IC50 (nM); MOTN1 cells (relative receptor density 67%)” value turned out to be 4.24 nM; the “In vitro cytotoxic activity, IC50 (nM); Mec-2 cells (relative receptor density 15%)” value is more than 20 nM; the “In vitro cytotoxic activity, IC50 (nM); OCI-Ly3 cells (relative receptor density 43%)” value was 6.42 nM; the “In vitro cytotoxic activity, IC50 (nM); PEER cells (relative receptor density 2%)” value was more than 20 nM. For the same molecule, the “In vitro cytotoxic activity, IC50 (nM); SUPHD1 cells (relative receptor density 310%)” value with Human CCR7 [3] came out at 1.69 nM.

B7: 121G12.DAPA.sSPDB.DM4 (antibody, human IgG1, kappa)
heavy: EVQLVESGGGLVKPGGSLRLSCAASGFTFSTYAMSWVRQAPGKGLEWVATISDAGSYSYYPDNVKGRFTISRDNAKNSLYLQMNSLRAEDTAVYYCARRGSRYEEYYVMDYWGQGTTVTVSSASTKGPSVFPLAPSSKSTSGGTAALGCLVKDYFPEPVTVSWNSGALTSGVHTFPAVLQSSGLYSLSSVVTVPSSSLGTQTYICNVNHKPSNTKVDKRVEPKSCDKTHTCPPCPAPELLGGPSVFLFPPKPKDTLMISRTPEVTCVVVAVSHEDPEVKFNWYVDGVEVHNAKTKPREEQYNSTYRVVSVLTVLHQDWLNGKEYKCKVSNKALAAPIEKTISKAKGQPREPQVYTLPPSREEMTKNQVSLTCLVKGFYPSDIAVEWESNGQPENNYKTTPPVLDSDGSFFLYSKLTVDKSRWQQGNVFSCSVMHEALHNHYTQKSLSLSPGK
light: EIVLTQSPATLSVSPGERVTLSCRASQSISNNLHWYQQKPGQAPRLLIKYASQSISGIPARFSGSGSGTDFTLTISSVEPEDFGVYFCQQSSSWLTFGQGTKLEIKRTVAAPSVFIFPPSDEQLKSGTASVVCLLNNFYPREAKVQWKVDNALQSGNSQESVTEQDSKDSTYSLSSTLTLSKADYEKHKVYACEVTHQGLSSPVTKSFNRGEC
modifications: sulfo-SPDB-DM4 on endogenous lysines, sites not defined; sulfo-SPDB-DM4 on endogenous lysines, sites not defined (DAR 3.6 as prepared; labelled DAR3.9 in the assays)
notes: also called 121G12.DAPA.sSPDB.DM4 (DAR3.9); sSPDB.DM4 ADC
As for B7, the “geometric mean fluorescence intensity, difference from the unconjugated antibody” value with Human CCR7 [2] is not above 20%.
